One assay concerns the target T1, EGFR (Homo sapiens, UniProt P00533).
T1 construct: autophosphorylated tyrosines (self-phosphorylated with ATP before use); purchased Sigma Chemical Co, MO
Put plainly: EGFR binding assay, bound EGFR detected by its tyrosine kinase activity towards pEY. The protocol: Proteins were produced in an in vitro transcription and translation reaction using 40–100 ng of plasmid DNA. […] The unbound components of the reaction containing endogenous kinases were removed by three washes with TT-buffer (25 mM Tris-HCl buffer pH 7.4 and 0.004% Triton), two five minutes washings with high-salt wash buffer (25 mM Tris-HCl buffer pH 7.4, 0.004% Triton, 1M NaCl and 5 mM DTT) and 3 more washes with TT-buffer. […] The unbound EGFR was washed by 4 times washing with TT-buffer (25 mM Tris-HCl buffer pH 7.4 and 0.004% Triton). The amount of EGFR bound to the reticulocyte lysate expressed protein was determined by detecting the kinase activity of EGFR. A tyrosine kinase substrate, 5 nM pEY (poly Glu-Tyr, Sigma, MO) was added in a 50 μl reaction containing 5 mM MgCl2, 5 mM MnCl2, 100 μM ATP, 25 mM Tris-HCl buffer pH 7.4, 0.05 mM Na3VO4, 0.004% TritonX-100, 2 mM DTT and EDTA-free protease inhibitor (Roche Molecular Biochemicals). This mixture was incubated with shaking at room temperature for 1 or 12 hours to allow phosphorylation of the pEY substrate by the EGFR. Following this incubation 45 μl of this mixture was transferred to a SA—NPT IPR plate coated with biotinylated anti-phosphotyrosine antibody (PY20, Zymed labs, CA) followed by incubation for 30 minutes at room temperature to allow the binding of the phosphorylated pEY substrate to the PY20 coated NPT plate. Following this binding step 50 ng Sulfo-TAG labeled anti-phosphotyrosine in buffer containing 25 mM Tris-HCl buffer pH 7.4, 5 mM MgCl2, 0.05 mM Na3VO4, 0.004% TritonX-100, 2 mM DTT and 0.05% IgG was added followed by incubation at room temperature for 30 mm.
The unbound reagents were removed by one time washing with TT-buffer (25 mM Tris-HCl buffer pH 7.4 and 0.004% Triton), and the TAG label was detected in presence of 150 μl IPR assay buffer (0.4 mM Gly-Gly buffer, pH 7.8, 1 mM EDTA, 0.1 M TPA). The ECL signals were measured using an imaging plate reader.

Assay [1] concerns the target T2, c-Myc peptide [SEQ ID No. 4] (Homo sapiens, UniProt P01106).
T2 construct: phosphothreonine (T58) and phosphoserine (S62) (chemical modification); purchased New England Peptide, Fitchburg Mass; host or cells: chemical synthesis
Put plainly: Phosphopeptide binding assay, peptide-BSA coated IPR plate. The protocol:
A phosphopeptide derived from the IkBa degradation motif (SEQ ID NO: 1) and a phosphopeptide derived from c-Myc (SEQ ID NO: 4) were chemically synthesized (New England Peptide, Fitchburg Mass.) with the following sequences respectively:
To prepare IPR plates for use in the assay, approximately 2.4 pmol BSA, 1.2 pmole IκBα-24pp peptide-BSA conjugate or 1.2 pmole of Myc-p58Tp62S peptide-BSA conjugate in 2.5 μl were deposited on the carbon working electrode surface in a single well of a 96-well plate. At this stage, the plates were dried then used or stored under desiccated condition. A few hours prior to usage, the plates were rehydrated and blocked with 3% BSA, in PBS.
Two βTRCP genes, βTRCP1 and βTRCP2, are present in the human genome on […], respectively. The coding sequence of these two genes shares over 90% identity and several full-length cDNAs of which are available as EST clones from Incyte (Palo Alto, Calif.) IMAGE #3491843 and 4237375. Also included were three other non specific EST clones as controls (Incyte, Palo alto, Calif.). […] These DNAs were used to produce the βTRCP protein and proteins encoded by the other DNAs as described in the Example 7. Proteins were transferred into wells of the peptide-coated and BSA-blocked IPR plates. […] The ECL signals were measured using an imaging plate reader (IPR).

Assay [2] has as its target T3, Myc peptide (SEQ ID NO: 4) (Homo sapiens, UniProt P01106).
T3 construct: phosphothreonine (T58) and phosphoserine (S62) (chemical modification); purchased New England Peptide, Fitchburg Mass; host or cells: chemical synthesis
Put plainly: 96-well screen for phosphopeptide binding proteins, 7-spot IPR plates. The following applies: two steps of normalization; top 9 clones. The protocol:
A screen was conducted using 7-spot IPR plates. The 7 spot NPT IPR plates are described in more detail in copending Provisional Application No. 60/301,932 (entitled “Assay Plates, Reader Systems and Methods for Luminescence Test Measurements”, filed on Jun. 29, 2001, hereby incorporated by reference) and particularly in the description of Plate Type D in Example 6.1 (NPT IPR plate) and U.S. application Ser. Nos. 10/185,274 and 10/185,363, filed Jun. 28, 2002, each hereby incorporated by reference. These plates consist of a 96 wells with 7 zones (spots) for the immobilization of proteins or other reagents. Each spot was coated with BSA conjugated to either a single phosphopeptide or multiple phosphopeptides.
The plates were prepared essentially as described in example 12. The seven spots supported, respectively, the following BSA conjugates IkB, pY992, pY1068, pY1148, Myc, “A”, and “6-P”. […]
For the assay, 4 ul from TnT reaction product described above were added to the coated plate containing 50 μl of binding buffer supplemented with 50 ng/well Ru-Streptavidin. […] The ECL signals were measured using an imaging plate reader (IPR). The raw data from the IPR reader was then normalized using two steps of normalization. […] These 50 lowest values were averaged and divided into each signal for that spot to generate a signal value which could be compared readily between the peptide-conjugate spots. […]

Results on two molecules are retold here after patent US7063946B2, “Methods, reagents, kits and apparatus for protein function analysis” (Meso Scale Technologies, LLC., priority 2001, dated 2006).

T3 sequence (P01106 with tags, fused parts or gaps limits assumed): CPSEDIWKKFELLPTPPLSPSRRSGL

B1: 4419252: IMAGE clone protein: PLCγ (protein)
chain: MAGAASPCANGCGPGAPSDAEVLHLCRSLEVGTVMTLFYSKKSQRPERKTFQVKLETRQITWSRGADKIEGAIDIREIKEIRPGKTSRDFDRYQEDPAFRPDQSHCFVILYGMEFRLKTLSLQATSEDEVNMWIKGLTWLMEDTLQAPTPLQIERWLRKQFYSVDRNREDRISAKDLKNMLSQVNYRVPNMRFLRERLTDLEQRSGDITYGQFAQLYRSLMYSAQKTMDLPFLEASTLRAGERPELCRVSLPEFQQFLLDYQGELWAVDRLQVQEFMLSFLRDPLREIEEPYFFLDEFVTFLFSKENSVWNSQLDAVCPDTMNNPLSHYWISSSHNTYLTGDQFSSESSLEAYARCLRMGCRCIELDCWDGPDGMPVIYHGHTLTTKIKFSDVLHTIKEHAFVASEYPVILSIEDHCSIAQQRNMAQYFKKVLGDTLLTKPVEISADGLPSPNQLKRKILIKHKKLAEGSAYEEVPTSMMYSENDISNSIKNGILYLEDPVNHEWYPHYFVLTSSKIYYSEETSSDQGNEDEEEPKEVSSSTELHSNEKWFHGKLGAGRDGRHIAERLLTEYCIETGAPDGSFLVRESETFVGDYTLSFWRNGKVQHCRIHSRQDAGTPKFFLTDNLVFDSLYDLITHYQQVPLRCNEFEMRLSEPVPQTNAHESKEWYHASLTRAQAEHMLMRVPRDGAFLVRKRNEPNSYAISFRAEGKIKHCRVQQEGQTVMLGNSEFDSLVDLISYYEKHPLYRKMKLRYPINEEALEKIGTAEPDYGALYEGRNPGFYVEANPMPTFKCAVKALFDYKAQREDELTFIKSAIIQNVEKQEGGWWRGDYGGKKQLWFPSNYVEEMVNPVALEPEREHLDENSPLGDLLRGVLDVPACQIAIRPEGKNNRLFVFSISMASVAHWSLDVAADSQEELQDWVKKIREVAQTADARLTEGKIMERRKKIALELSELVVYCRPVPFDEEKIGTERACYRDMSSFPETKAEKYVNKAKGKKFLQYNRLQLSRIYPKGQRLDSSNYDPLPMWICGSQLVALNFQTPDKPMQMNQALFMTGRHCGYVLQPSTMRDEAFDPFDKSSLRGLEPCAISIEVLGARHLPKNGRGIVCPFVEIEVAGAEYDSTKQKTEFVVDNGLNPVWPAKPFHFQISNPEFAFLRFVVYEEDMFSDQNFLAQATFPVKGLKTGYRAVPLKNNYSEDLELASLLIKIDIFPAKENGDLSPFSGTSLRERGSDASGQLFHGRAREGSFESRYQQPFEDFRISQEHLADHFDSRERRAPRRTRVNGDNRL
Turning to B1, the ECL signal is reported as 17,966 with EGFR (+EGFR, reaction time 1 hr); 39,767 in the assay with EGFR (+EGFR, reaction time 12 hr); 1,695 with EGFR (no EGFR).

B2: 4237375: IMAGE clone protein: βTRCP2 (protein)
chain: MEPDSVIEDKTIELMCSVPRSLWLGCANLVESMCALSCLQSMPSVRCLQISNGTSSVIVSRKRPSEGNYQKEKDLCIKYFDQWSESDQVEFVEHLISRMCHYQHGHINSYLKPMLQRDFITALPEQGLDHIAENILSYLDARSLCAAELVCKEWQRVISEGMLWKKLIERMVRTDPLWKGLSERRGWDQYLFKNRPTDGPPNSFYRSLYPKIIQDIETIESNWRCGRHNLQRIQCRSENSKGVYCLQYDDEKIISGLRDNSIKIWDKTSLECLKVLTGHTGSVLCLQYDERVIVTGSSDSTVRVWDVNTGEVLNTLIHHNEAVLHLRFSNGLMVTCSKDRSIAVWDMASATDITLRRVLVGHRAAVNVVDFDDKYIVSASGDRTIKVWSTSTCEFVRTLNGHKRGIACLQYRDRLVVSGSSDNTIRLWDIECGACLRVLEGHEELVRCIRFDNKRIVSGAYDGKIKVWDLQAALDPRAPASTLCLRTLVEHSGRVFRLQFDEFQIISSSHDDTILIWDFLNVPPSAQNETRSPSRTYTYISR
Take B2: in assay [1], the “Average ECL signal, c-Myc peptide [SEQ ID No. 4]” value is 896. In assay [2], the “normalized ECL signal, Myc spot” value came to 10.
